Data on two substances can be found in article PMC4032163.

Experiment [1] deals with BG505 SOSIP.664 gp140 trimer (HIV-1 subtype A transmitted/founder virus BG505). Put plainly: native gel or EMSA; BN-PAGE, Coomassie blue staining, of 2G12-affinity-purified Env proteins and of SEC-purified trimers from stable cell lines and transient transfection.
The target of experiment [2] is uncleaved CZA97.012 gp140 (HIV-1 subtype C, CZA97.012 | not stated). Put plainly: SEC.

Take BG505 SOSIP.664 gp140 trimer (complex): the stoichiometry N in experiment [1] was found to be 3.
uncleaved CZA97.012 gp140 returned a stoichiometry N in experiment [2] of 3.
